Values after ≈ are worked out from the molar mass of the structure shown.
Tests used:
[1] = Homolysis kinetics / stability of alkoxyamines by EPR; type: physicochemical; details: for activation energy Ea of homolysis: from kd by Arrhenius law
Experimental: Homolysis constants were measured by Electronic Paramagnetic Resonance (EPR) on a EMX Bruker spectrometer, with O2 as the alkyl radical scavenger, as previously reported. Thermic activation led to the liberation of nitroxide: (2,2,6,6-tetramethylpiperidin-1-yl)oxyl (TEMPO). The details of the kinetic experiments in aqueous or solvent phases and the values of homolysis rate constants (kd), activation energies (Ea), and half-life times (t1/2) are reported in Supplementary Information and Data (see below).
Indeed, the activation energies of these alkoxyamines range from 121 to 140 kJ/mol with half-life times longer than 10 days (Supplementary Table S1). Moreover, the values were measured for a mixture of the two diastereoisomers. […] The solvent effect (i.e., t-BuPh) versus H2O/1-PrOH (99:1) was also investigated. […] Overall, there is no stability concern for these molecules with respect to the subsequent biological studies.
EPR kinetic figures of homolysis rate constants ( kd), activation energies ( Ea) and half-life
Molecule Solvent T (°C)a kd (s-1)b,c Ea (kJ·mol-1)d t1/2(37 °C) (days)

[2] = test system: Ku80 azole-susceptible strain; experiment: Exposure of A. fumigatus spores to alkoxyamines, azole-susceptible strain; type: cell-based; details: Aspergillus fumigatus
Experimental: (§1) Ku80 azole-susceptible strain and FC240 azole-resistant strain were kindly provided by Prof. J.-P. Latge and Dr E. Fréalle (Lille University Hospitals, Lille, France). The latter strain harbors a 34 bp tandem repeat mutation (TR34) in the cyp51A gene promoter combined with a substitution in codon L98H. The strains of A. fumigatus were used for spore preparation as previously described. Briefly, spores were grown from frozen stocks on Sabouraud + Chloramphenicol agar tubes (BioMérieux, Marcy l’Etoile, France) at 37 °C for 7 days. Next, conidia were collected by scraping and suspending in PBS containing 0.01% Tween 20 (Sigma-Aldrich®, St. Louis, MO, USA). Spore counting was performed using a Kova® hemacytometer, and aliquots of 10^6 spores were prepared.
(§2) A. fumigatus spores were exposed to various concentrations of alkoxyamines (1, 10, 100, and 1000 µM), with each concentration in triplicate. Controls were grown alone (without alkoxyamine treatment) or exposed to the antifungal voriconazole under the same experimental conditions. Briefly, the reactions were performed in well plates in a total volume of 250 μL RPMI medium. At the end of the incubation time period (48 h), the optical densities (OD600 nm) of scrapped cultures were recorded in one set of the reactions using a spectrophotometer (Thermo Fisher Scientific, Illkirch, France). […] Experiments were repeated at least three times.

[3] = test system: FC240 azole-resistant strain; experiment: Exposure of A. fumigatus spores to alkoxyamines, azole-resistant strain; type: cell-based; details: Aspergillus fumigatus
Experimental: as §1, §2

[4] = t-BuPh, mixture of two diastereoisomers
[5] = H2O/1-PrOH 99:1, extrapolated to 37 °C
[6] = t-BuPh/DCM 99:1, extrapolated to 37 °C

Structure (SMILES) | activation energy Ea of homolysis [1, 4] | half-life time t1/2 (37 °C) of homolysis [1, 6] | activation energy Ea of homolysis ([1]; t-BuPh/DCM 99:1) | further results
CC(ON1C(C)(C)CCCC1(C)C)c1ccc(NC(=O)[C@@H]2CCCN2C(=O)CNC(=O)OCC2c3ccccc3-c3ccccc32)cc1 (stereo partly shown) [4a] | 33.34 kcal/mol | – | – | –
CC(ON1C(C)(C)CCCC1(C)C)c1ccc(NC(=O)[C@@H]2CCCN2C(=O)CNC(=O)CCC(=O)O)cc1 (stereo partly shown) [VIa] | – | 1519 days | 32.15 kcal/mol | half-life time t1/2 (37 °C) of homolysis [1, 5]: 10 days; activation energy Ea of homolysis ([1]; H2O/1-PrOH 99:1): 29.06 kcal/mol
CC(ON1C(C)(C)CCCC1(C)C)c1ccc(NC(=O)[C@@H]2CCCN2)cc1 (stereo partly shown) [compound 3] | – | 2554 days | 32.48 kcal/mol | –
C[C@@H](c1ncncc1F)[C@](O)(Cn1cncn1)c1ccc(F)cc1F [voriconazole] | – | – | – | MIC [2]: 0.25 µg/mL (≈ 0.716 µM); MIC [3]: 4 µg/mL (≈ 11.5 µM)
CC(ON1C(C)(C)CCCC1(C)C)c1ccc(NC(=O)[C@@H]2CCCN2C(=O)OC(C)(C)C)cc1 (stereo partly shown) [compound 2] | 32.93 kcal/mol | – | – | half-life time t1/2 (37 °C) of homolysis ([1]; t-BuPh, extrapolated to 37 °C): 5395 days
CC(ON1C(C)(C)CCCC1(C)C)c1ccc(NC(=O)[C@@H]2CCCN2C(=O)[C@H](C)NC(=O)OCC2c3ccccc3-c3ccccc32)cc1 (stereo partly shown) [4b] | 33.15 kcal/mol | – | – | –
CC(ON1C(C)(C)CCCC1(C)C)c1ccc(NC(=O)[C@@H]2CCCN2C(=O)[C@H](C)NC(=O)CCC(=O)O)cc1 (stereo partly shown) [VIb] | – | 3632 days | 32.7 kcal/mol | half-life time t1/2 (37 °C) of homolysis [1, 5]: 199 days; activation energy Ea of homolysis ([1]; H2O/1-PrOH 99:1): 30.9 kcal/mol
